# Positions of bridges follow the written chain, without caps; N, C: chain ends. No end group written: not given here. *: point of attachment. Biotin = O=C1N[C@H]2[C@H](CS[C@H]2CCCCC(=O)*)N1
# B1: mutTNF: E.coli-derived recombinant (T104A-E106A-E109A) triple TNF mutant (protein, UniProt P06804 1-235, looked up, variant T104A E106A E109A)
# chain: MSTESMIRDVELAEEALPQKMGGFQNSRRCLCLSLFSFLLVAGATTLFCLLNFGVIGPQRDEKFPNGLPLISSMAQTLTLRSSSQNSSDKPVAHVVANHQVEEQLEWLSQRANALLANGMDLKDNQLVVPADGLYLVYSQVLFKGQGCPDYVLLTHTVSRFAISYQEKVNLLSAVKSPCPKDAPAGAALKPWYEPIYLGGVFQLEKGDQLSAEVNLPKYLDFAESGQVYFGVIAL
# Tests used:
# [1] = test system: resident peritoneal macrophages; test: Whole-cell patch clamp in resident peritoneal macrophages; type: cell-based, mouse; conditions: 30 min preincubation, acidic pH
# Description: (§1) Animals, cells and reagents. Male CBA/J or C57BL/6 mice, as well as male TNFR ½^0/0 C57BL/6 mice deficient in TNF receptors (Bruce et al., 1996) provided by H. Bluethmann, F. Hoffmann-La Roche, Basel, Switzerland, were used at the age of 8–10 weeks. Their care was in accordance with institutional guidelines. Lung microvascular endothelial cells were isolated from CBA/J mice and characterized as described (Jackson et al., 1990) using magnetic beads (Dynabeads M-450, Dynal, Oslo, Norway), covalently bound to a purified rat-anti-mouse PECAM-1 monoclonal antibody (donated by B. Imhof, University of Geneva). Microvascular lung endothelial cells were resuspended in DMEM containing 2 mM L-glutamine, 100 U/ml penicillin, […], 20% FCS, 40 U/ml heparin and […] endothelial cell growth supplement (Brunschwig Chemie, Basel, Switzerland). For patch clamp experiments, cells were plated onto 35×10 mm easy grip Petri dishes (Beckton Dickinson, Plymouth, UK), pre-coated with 0.2% gelatin (Sigma, Buchs, Switzerland). Resident peritoneal macrophages, isolated in ice cold RPMI containing antibiotics and 10 U/ml Heparin, were left to adhere onto 35×10 mm easy grip Petri dishes for 4 h, after which the non-adherent cells were removed. […]
# (§2) Electrophysiology. […] Currents were recorded with an Axopatch-200A amplifier (Axon Instrument Inc, Foster City, Calif., USA), low pass-filtered at 1 kHz. […]
# [2] = test system: lung microvascular endothelial cells; test: Whole-cell patch clamp, membrane conductance in lung microvascular endothelial cells; type: cell-based, mouse
# Description: Animals, cells and reagents. Male CBA/J or C57BL/6 mice, as well as male TNFR ½^0/0 C57BL/6 mice deficient in TNF receptors (Bruce et al., 1996) provided by H. Bluethmann, F. Hoffmann-La Roche, Basel, Switzerland, were used at the age of 8–10 weeks. Their care was in accordance with institutional guidelines. Lung microvascular endothelial cells were isolated from CBA/J mice and characterized as described (Jackson et al., 1990) using magnetic beads (Dynabeads M-450, Dynal, Oslo, Norway), covalently bound to a purified rat-anti-mouse PECAM-1 monoclonal antibody (donated by B. Imhof, University of Geneva). Microvascular lung endothelial cells were resuspended in DMEM containing 2 mM L-glutamine, 100 U/ml penicillin, […], 20% FCS, 40 U/ml heparin and […] endothelial cell growth supplement (Brunschwig Chemie, Basel, Switzerland). For patch clamp experiments, cells were plated onto 35×10 mm easy grip Petri dishes (Beckton Dickinson, Plymouth, UK), pre-coated with 0.2% gelatin (Sigma, Buchs, Switzerland). Resident peritoneal macrophages, isolated in ice cold RPMI containing antibiotics and 10 U/ml Heparin, were left to adhere onto 35×10 mm easy grip Petri dishes for 4 h, after which the non-adherent cells were removed. Cells were grown in RPMI 1640 containing 2 mM L-glutamine, 100 U/ml penicillin, 10 μpg/ml streptomycin and 10% fetal bovine serum (all from Gibco). For patch clamp, the macrophages ware used 24 h after isolation.
# Electrophysiology. Cells were pretreated for 30 min with TNF, mutTNF and tip peptides at 37° C. in a buffer consisting of 145 mM NaCl, 3 mM KCl, 2mM CaCl2, 2mM MgCl2, 10 mM D-glucose, and 10mM Hepes, and pH-adjusted with NaOH to required value. Cells were then washed with the same buffer pH-adjusted at 7.3, and experiments were performed using the tight-seal, whole-cell recording technique. Currents were recorded with an Axopatch-200A amplifier (Axon Instrument Inc, Foster City, Calif., USA), low pass-filtered at 1 kHz. Digitalization and off-line analysis was performed using the WCP program (J. Dempster, Strathclyde Electrophysiology Software, Glasgow, UK). Patch pipettes were pulled from borosilicate glass and fire polished to have an open resistance of 3–5 MW with an internal solution containing […], 2 mM MgCl2, 10mM EGTA, 20 mM TEA-Cl, 10 mM D-glucose 10 mM Hepes, pH-adjusted to 7.3 with CsOH. Series resistances were kept under 10 MW. Capacitance and series resistance compensation were applied and set to 70%. All experiments were done at room temperature. Results are given as mean ±SEM, unless otherwise indicated. Analysis of variance was performed on currents and membrane conductance values, with post-hoc Dunn-Bonferroni test for significance of differences observed between two groups. A P value of 0.05 was considered significant.
# isolated rat lungs = test: Isolated lung perfusion experiments (blood perfused, flooded with NaCl); conditions: after injection of 2 ml NaCl solution; 1 mg/lung
# Procedure: Lungs of female Whistar rats weighing about 300 g were isolated as described in DeCampos et al. (1993). The lungs were injected intratracheally with either 500 μl of sterile […], wild type murine TNF (1 μg/lung) or mTNF tip peptide (Ltip (SEQ ID NO:6), see above; 1 mg/lung). Subsequently, the lungs were perfused with blood isolated from the same rat. Thirty minutes later, the lungs were injected intratracheally with 2 ml of sterile […] solution which leads to a weight increase of about 2 g (FIG. 5). The weight evolution was then followed continuously for 150 min (FIG. 5).
# [3] = Chloride efflux from SPQ-containing liposomes
# Procedure: Preparation of liposomes. Large unilamellar liposomes were prepared by reverse phase evaporation as previously described (Vecsey-Semjen et al., 1996). Liposomes were prepared of either 100% egg phosphatidylglycerol (EPG) or a mixture of EPC and EPG (1:1 W/W) in a buffer containing 100 mM KCl, 20 mM N-[2-Hydroxyethyl]piperazine-N′-[2-ethane-sulfonic acid] (HEPES), pH 7.4 and 1.5 mg/ml of 6-methoxy-N-(3-sulfopropyl)quinolinium (SPQ).
# Choride efflux measurements. All fluorescence experiments were carried out using a PTI spectrofluorometer equipped with a thermostated cell holder (37° C.). The dye was excited at 350 nm and emission was recorded at 422 nm, both excitation and emission band widths were set to 5 nm. Liposomes were diluted to a final concentration of 50 μg/ml in a solution containing 100 mM KNO3 and 20 mM MES pH 6.1 or 20 mM HEPES, pH 7.4. Wild type and mutant TNF were added to a final concentration of 3 μg/ml.
# [4] = test system: resident peritoneal macrophages from mice deficient in both TNF receptor-1 and -2; test: Whole-cell patch clamp in resident peritoneal macrophages of TNFR1/2-deficient mice; type: cell-based, mouse; conditions: cells lacking TNF receptors
# Description: as §1, §2
# [5] = Tryptophan fluorescence (acidic unfolding); type: physicochemical
# Procedure: Tryptophan fluorescence. Fluorescence measurements were made with a PTI spectrofluorimeter. The excitation wavelength was 295 nm and slit widths were 5 nm and 2.5 nm for excitation and emission respectively. For each recorded spectrum, the Raman scatter contribution was removed by subtraction of a buffer blank. All buffers contained 150 mM NaCl, and 20 mM of N-[2-morpholino] ethane-sulfonic acid (MES) buffer at the desired pH. The samples were allowed to incubate for 1 h 30 at the desired pH before measuring the emission spectrum. The wild type and mutant TNF concentrations were 6 μg/ml.
# [6] = Quenching of tryptophan fluorescence by brominated lipids; conditions: acidic pH
# Description: In order to investigate whether chloride efflux was due to membrane binding or membrane insertion of TNF, we have analyzed whether brominated lipids were able to quench the intrinsic fluorescence of TNF and mutTNF upon membrane interaction. Brominated lipids have been useful in determining the topology of membrane proteins (Bolon et al., 1990) (Markello et al., 1985) as well as studying the membrane interaction of pore-forming toxins (Gonzalez-Manas et al., 1992) (Van der Goot et al., 1991) (Vecsey-Semjen et al., 1997). TNF contains two tryptophan residues, one at the top of the receptor binding domain and one at the top of the so called tip domain. If the tip of the TNF trimer were to insert into the lipid bilayer, the fluorescence of Trp-113 should be quenched upon insertion into liposomes composed of dioleoylphosphatidylglycerol that had bromines attached at positions 9 and 10 of the acyl chains. We have indeed previously observed that tryptophans located at the boundary between the lipid head groups and the acyl chains were succeptible to bromide quenching.
# trypanosome = conditions: compared to wild type TNF; cited from earlier work
# [7] = test system: murine model of peritonitis; conditions: cited from earlier work
# [8] = compared to wild-type mTNF in vivo; cited from earlier work
# [9] = 30 min preincubation at acidic pH (pH 6), TNF, mutTNF 100 ng/ml, peptides 100 μg/ml
Molecule,whole cell current [1],induced increase in conductance in presence of amiloride ([2]; 100 μM amiloride added during pretreatment at pH 6.0),"whole cell current / membrane conductance [2, 9]",whole cell current / membrane conductance ([2]; preincubation at pH 7.3 (neutral pH)),start of weight loss (isolated rat lungs),"change in SPQ fluorescence / interaction with membranes ([3]; peptide concentrations up to 300 μg/ml, neutral, acidic or 1:1 lipids)",whole cell current [4],acidic unfolding ([5]; acidification of the medium),maximum emission of tryptophan fluorescence ([5]; pH 4.6) [nm],maximum emission of tryptophan fluorescence ([5]; pH 6) [nm],fluorescence quenching by brominated lipids [6],"chloride efflux (SPQ fluorescence) ([3]; 100% EPG liposomes, pH 6.1, 3 μg/ml)",interaction with membranes ([3]; neutral pH),trypanolytic and lectin-like affinity to oligosaccharides (trypanosome),peritonitis-protective effect [7],systemic toxicity [8]
GG-CGPKDTPEGAELKPWYC (Biotin-GGCGPKDTPEGAELKPWYC; disulfide 3-19; listed as Mus musculus) [LTip],increased outward,blocked,"increased outward, and inward currents","persisted at neutral pH, although less pronounced",started immediately,unable to interact with membranes,also active,–,–,–,–,–,–,–,–,–
B1,–,–,completely lacked the conductance activating effect,–,–,–,–,able to undergo acidic unfolding,339,318,unable to see any fluorescence quenching,even more pronounced than that of wild type TNF,did not interact with membranes,lacks the trypanolytic and lectin-like affinity to oligosaccharides,retains its peritonitis-protective effect,significantly reduced systemic toxicity

# From patent US7258861B2, “TNF-derived peptides for use in treating oedema” (Innogenetics N.V., priority 2001, dated 2007)
